Patent US20200292534A1 (PROMEGA, published 2020)
Starred links: 1 amine or outer side, 2 acyl side, 3 side chain; linkers in the order of their positions; H or OH if unused. No end group written: not given here. NH(CH2)3(OCH2CH2)2O(CH2)3NH = C(CN[*:1])COCCOCCOCCCN[*:2]

Tests used:
[1] = biological target: T1, NLpoly11S; experiment: luminescence complementation titration at several furimazine concentrations, 1-site fit
T1 construct: Non-luminescent polypeptide (engineered large fragment of NanoLuc); Used as E. coli clarified lysate or as purified protein; also called 11S (12 - A51T); LSP 11S
T1 chain: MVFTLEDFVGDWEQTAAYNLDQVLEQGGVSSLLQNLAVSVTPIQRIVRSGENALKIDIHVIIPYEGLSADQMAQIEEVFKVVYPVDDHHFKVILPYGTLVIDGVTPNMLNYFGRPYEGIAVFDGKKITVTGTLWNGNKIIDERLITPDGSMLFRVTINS

[2] = biological target: T2, NLpoly WT; experiment: luminescence complementation titration (E. coli lysate NLpoly, synthetic NLpep), one site-specific binding fit
T2 construct: also called WT NLpoly
T2 chain: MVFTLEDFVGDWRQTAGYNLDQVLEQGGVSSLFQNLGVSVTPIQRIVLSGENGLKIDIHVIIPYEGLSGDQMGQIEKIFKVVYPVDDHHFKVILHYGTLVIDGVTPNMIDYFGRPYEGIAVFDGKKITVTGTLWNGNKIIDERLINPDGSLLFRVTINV

[3] = biological target: T1, NLpoly11S; experiment: luminescence of purified NLpoly11S in NanoGlo with peptide
[4] = biological target: T1, NLpoly11S; experiment: luminescence complementation titration on purified NLPoly11S, 1 site specific binding fit
[5] = biological target: T1, NLpoly11S; experiment: luminescence complementation titration, one-site specific binding fit
[6] = biological target: T2, NLpoly WT; experiment: BRET wavelength scan, NLpoly WT lysate + peptide
[7] = biological target: T1, NLpoly11S; experiment: spectral scan of luminescence, purified NLpoly11S + peptide

GVTGWRLCERILA (also called NLpepWT; NLPep1 (WT)) [NLpep1]
binding result [1]: binds
Kd [2]: ~10 µM

B1: GWALFKK (peptide)
peptide: GWALFKK
notes: Dark peptide; also called NLpep162 (w/o Met)
binding result [3]: binds

B2: NLpep114 (peptide)
peptide: VTGYRLFEEIL
notes: Synthetic; also called NLpep114 (w/o Met)
binding result [4]: binds

Ac-VTGYRLFEEIL-NH2 [array2.52]
Kd [5]: 104 µM

B3: PBI-4877 (peptide)
peptide: GVTGWRLCERILA-{NH(CH2)3(OCH2CH2)2O(CH2)3NH-6‑tetramethylrhodamine}
notes: also called NLpep1-TMR; NLPep1-fluorophore
binding result [6]: binds
binding result [7]: binds

GWALFKK (not fully specified (N-terminus); printed as Dabcyl-GWALFKK, Quencher peptide) [Dabcyl-GWALFKK]
binding result [3]: binds
